# Test results as given in the supplement of paper PMC12764529.
# ± gives the half width of the 95% confidence interval.
# Assay: folding stability dG unfold (combined trypsin and chymotrypsin); higher = more stable
# How it was run: (§1)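 Mini-proteins designed to be under 80 residues and free of cysteine were carried in a PA-tagged cDNA display construct and digested with trypsin and with chymotrypsin. Each protease was applied at 11 threefold-diluted concentrations, alongside a no-protease condition, before sequencing. K50 came from Bayesian fitting of the sequencing counts, and unfolding free energy was obtained by comparing it with a sequence-predicted unfolded-state K50 and a shared folded-state K50, for each protease separately or for both together. Designs were retained only if their AlphaFold2 dimer inter-PAE exceeded 15.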
row,Sequence,folding stability dG unfold [kcal/mol]
1,SAGGSAGGSMNVSPEELEALARERIEALLAENPDVPRDDVVLEFEGRSESPGKVITLTLRVRASAGGSAGGS [r12_707_JUSTAS],0.0895 ± 0.21
2,SAGGKTKVIVVKVKPEMTVEEIAKKLAEELKKKGKKVKVEVKVIEKLPNGELYVKVTVKDGKLTIEPSAGGS [r8_7_TrROS_Hall],1.35 ± 0.19
3,SAGGSAGGEIEILPGAKIVRVERRKDGSLLIVVEVDGKLYLFRFKDGKVEVIELPEGASLEELLSAGGSAGG [r6_680_TrROS_Hall],4.92 ± 0.087
4,SAGGSAGGSAGGVGKDKPVIIKIKIKRKVYGLNTPELIAEEEEEIVVVVHPDVNPEKIKPSAGGSAGGSAGG [r7_591_TrMRF],1.83 ± 0.35
5,SAGSITTTDGNISRSVTYIPGLNLYLVTSTYPTSVSVDLVTEEGGTLTTTPVSTTPLPLPASSLSTTASAGG [r19_328_JUSTAS],0.0781 ± 0.091
6,SAGGSAGGGSMGSVSVSETTTTSTEGSTTTTTTVHTTTVGGTTTTTTTTTTTSPTPGASSPATASAGGSAGG [r6_684_JUSTAS],1.85 ± 0.047
7,SAGGSAGGSAGGNITVTEDGWIVIEIPYYSPDGGPSPITIVIPIPKMPPEEAEELADKGSAGGSAGGSAGGS [r10_1096_TrROS],1.11 ± 0.14
8,SAGGSAGGSAGSYTVTPITLKLPDGTEVDAVLTTDPAGNVTLTLTGDSPLSTLTFPASTLSAGGSAGGSAGG [r11_327_JUSTAS],1.18 ± 0.049
9,SAGGMLTGTLVDPVEGIRYTSFYDPSKPSSSITPKPIPPVPPVSLEELAERLRAATGLSREEVLALLESAGG [r13_824_JUSTAS],0.76 ± 0.072
10,SAGGSAGGMTITLTLPDGTVITITVSRPGSPTTVVSVKAERPARGGTDIPEEVAKELAEKILKESAGGSAGG [r6_235_JUSTAS],2.55 ± 0.076
11,SGISNEEIKKILEEIAKEYPGLKIEIKPGTEPSVAKGPKAVVTLTRKPGYLEITITFPETGETTTIPIPPSA [r9_1062_JUSTAS],2.64 ± 0.043
12,SAGGSAIWIPVDEIRDLLKEFGIDVTVERHPNDGWVEIEIKMRRPNGKKHPIKIWVHPDGYIRIEPSAGGSA [r15_1051_TrROS],4.03 ± 0.18
13,SMPEIKVEKKNGKLTITVPKGAKIKIKIEVNGKKIEKEVEVKEGETVTITIELPPNMPKDVKIKEIEIEKSA [r9_1152_TrROS_Hall],1.88 ± 0.13
14,SAGGSAGGSAGEGLKVTVTVSGELDPEKGGLSLRVEIRVEPVLIPPPVLPPAADNLSNLLSAGGSAGGSAGG [r17_454_TrMRF],1.55 ± 0.09
15,SAGGSAGGPLPLEELRRLLESRPDYEILSVEDESPDYVVVTVRFPFPLPSDEERTLRLRLRFPLSAGGSAGG [r6_152_TrMRF],3.08 ± 0.094
16,SAGGSAGGSIRRDENGNFRVRIKVRFPGNGRKRTIEIPFDNATLEEIRKQAIDHGIRPIEIIPSAGGSAGGS [r12_792_TrROS],1.24 ± 0.047
17,SAGGSANFNVKLEIKIIERNPGNPDYVIVRIKVEHRHPNPDGNPMEHRRPIPWIMITDPEEIKEFISAGGSA [r15_1019_TrROS],2.36 ± 0.084
18,SAGPKKKVEIDVHIMIPFKSWEDRELMLYYARKFAPYIARELAKQNGLPPGVDEVKVDVNIMIIPPGQMSAG [r5_436_TrROS],3.34 ± 0.12
19,SAGGSAGGSMETITLPEDVKVEVVEVEPGSVIEVEFEDGLVARVRIDPENLEKVEIEVFPKEESAGGSAGGS [r12_648_TrROS_Hall],0.694 ± 0.17
20,SAGGSAGGSMEVTVTPLPDGSLLVTVTVTTSSTPVPVELRFPPSASLEEIRAAAEARAAEVAASAGGSAGGS [r12_69_JUSTAS],1.57 ± 0.047
21,SAGGSASMPLTLTFTTPTRTFTVTIPPSKVSSVTVEEKGPTITVTVEAPDSTITINITPSSVTISASAGGSA [r15_598_JUSTAS],3.8 ± 0.12

row,Sequence,folding stability dG unfold [kcal/mol]
1,SMSVSTSTEKLPTDLYITEKEIKIEPVDPTKNVYRVTVKTTIVDKNGNVVKEEEKEEIIPLSELEKRIKSSA [r9_234_JUSTAS],1.54 ± 0.28
2,SAGGSAGGSAGMTTLTVTVPAPPDALTPEDVVALLRPEYPDATITVTREGDTLVVTVTVASAGGSAGGSAGG [r11_7_JUSTAS],2.83 ± 0.047
3,SAMVLRIKVEVNGETKEIEIELPPNAKIEKKDGELTIYVKNPETGKIFKFKFKKNAKIVEVEEVDPEDLSAG [r14_313_TrROS_Hall],3.83 ± 0.1
4,SAFRIKIELWNPNGKPQEHTFPVPPGDPDKLVEEIEDEVQKHHPNDGYKMRAEILEVTPNGWVTIRIWYSAG [r14_622_TrROS],2.79 ± 0.18
5,SAGGSAGGSAGMEFEVLEVIPPELLAEGGEITVGLPDGERLLVRVSPDGGVKEVRLLPPESAGGSAGGSAGG [r17_2_TrMRF],0.236 ± 0.16
6,SAGGSAGGSAGGMTAKEIAEKLGLPPGAKVVKIEYDKETNTFYIVIEVDGELKTYRIDVSAGGSAGGSAGGS [r10_17_TrROS_Hall],4.69 ± 0.087
7,SAGGSAGGSAGMAIGLEEILARLDPERIISVEVDEENPLVTVKLRPPSGETKTITFKLSLSAGGSAGGSAGG [r17_374_JUSTAS],1.06 ± 0.07
8,SAGGSAGGSPNPKNVKIYLVALDPDKPEVVAEASFNITVDTEEELEAILKELVPLFPGAKVFASAGGSAGGS [r12_1043_TrMRF],1.13 ± 0.1
9,SSPEEMAEKLAKELNFDKIEIKTEKLDLPSGPSEATVATAKLYNPATGKEYVVKILKFPDGSYEIVIEKKSA [r9_724_JUSTAS],2.28 ± 0.07
10,SAGGDIKFEIGLELLPDGILVIRGSVEVRMGGQSVTYEFIIIVKIKPIPPPPPPPKPKYNPEDGKWKSAGGS [r8_269_TrROS],2.58 ± 0.22
11,SAGGPTVVLRVRDADGNLVTVTFDEETKRITVTVVRDGKTRTLTVDMTVDEAIARLRDLFPVEVELVPSAGG [r13_141_TrROS_Hall],2.83 ± 0.041
12,SAGGSMIPRLEERVLEVEVDSEEEAEKLKKELKEKIEKEHPGVEVKFELRKLPNGKYLLTITVVIPILSAGG [r13_17_JUSTAS],3.64 ± 0.077
13,SEMSVEEILKKIAEELLKKNPNKEVTKEIEIEFEKPDPEGKRLLKEKVKATIKVTPDKIEILSESREILLSA [r9_361_JUSTAS],1.31 ± 0.18
14,SAGGSAGGSAGGSKPKVKITIEKNKETNEYTITIEKDGKKYTFVVKNLKPDDPAIKKALSAGGSAGGSAGGS [r4_328_TrROS_Hall],2.55 ± 0.09
15,SAGGSAGGSAMPLEKVIKNLTSSGSVESLKEKLAKEYGVEKVEVTKDPNSDTYSAKVFLKKPSAGGSAGGSA [r18_275_JUSTAS],0.131 ± 0.15
16,SAGGSAGGSAGGKVVKKVKVLTKTPKGGYKVIEVDFTDPSAVVEEAKKAGLEVLKVEEVSAGGSAGGSAGGS [r10_882_TrMRF],0.728 ± 0.098
17,SAGGSAGGSAMSVTATVPEKPVTLTYIPPNTVTKTVIDPSTGTTTTTEVNLPPGVVPASLLLSAGGSAGGSA [r18_59_JUSTAS],0.14 ± 0.045
18,SAGGSAGGSAGGSSMITVSTTSFPDGTRKVTITEPGTGKPLKTVDMPPSESVSAVKEKLSSAGGSAGGSAGG [r7_633_JUSTAS],-0.245 ± 0.2
19,SAGGSAGGSAGGKKTIVIEINGKKYTITRIEFDKDTKKITIEIEFNGKKLKIEIELPKNLSAGGSAGGSAGG [r7_477_TrROS_Hall],3.11 ± 0.27
20,SAGMETVVTYDPSNGTVTTTTTVFAPDGTPLGSLSTTTPIGGGTITYTTITIDPETGTVTTTTTAYPGASAG [r5_34_JUSTAS],4.25 ± 0.11
21,SAGGSAGGSAGKMYKLTIEKDGKEIEIIVSEDELKEIAKKLGLPPNAKIKVEKVSPEELKSAGGSAGGSAGG [r17_395_TrROS_Hall],3.27 ± 0.17

# Assay: folding stability dG unfold from trypsin proteolysis; higher = more stable
# How it was run: as §1
row,Sequence,folding stability dG unfold [kcal/mol]
1,SAGGSAGGSMNVSPEELEALARERIEALLAENPDVPRDDVVLEFEGRSESPGKVITLTLRVRASAGGSAGGS [r12_707_JUSTAS],0.242 ± 0.14
2,SAGGKTKVIVVKVKPEMTVEEIAKKLAEELKKKGKKVKVEVKVIEKLPNGELYVKVTVKDGKLTIEPSAGGS [r8_7_TrROS_Hall],1.12 ± 0.085
3,SAGGSAGGEIEILPGAKIVRVERRKDGSLLIVVEVDGKLYLFRFKDGKVEVIELPEGASLEELLSAGGSAGG [r6_680_TrROS_Hall],4.23 ± 0.14
4,SAGGSAGGSAGGVGKDKPVIIKIKIKRKVYGLNTPELIAEEEEEIVVVVHPDVNPEKIKPSAGGSAGGSAGG [r7_591_TrMRF],1.06 ± 0.074
5,SAGSITTTDGNISRSVTYIPGLNLYLVTSTYPTSVSVDLVTEEGGTLTTTPVSTTPLPLPASSLSTTASAGG [r19_328_JUSTAS],0.207 ± 0.059
6,SAGGSAGGGSMGSVSVSETTTTSTEGSTTTTTTVHTTTVGGTTTTTTTTTTTSPTPGASSPATASAGGSAGG [r6_684_JUSTAS],2.01 ± 0.065
7,SAGGSAGGSAGGNITVTEDGWIVIEIPYYSPDGGPSPITIVIPIPKMPPEEAEELADKGSAGGSAGGSAGGS [r10_1096_TrROS],1.13 ± 0.14
8,SAGGSAGGSAGSYTVTPITLKLPDGTEVDAVLTTDPAGNVTLTLTGDSPLSTLTFPASTLSAGGSAGGSAGG [r11_327_JUSTAS],0.119 ± 0.026
9,SAGGMLTGTLVDPVEGIRYTSFYDPSKPSSSITPKPIPPVPPVSLEELAERLRAATGLSREEVLALLESAGG [r13_824_JUSTAS],1.02 ± 0.022
10,SAGGSAGGMTITLTLPDGTVITITVSRPGSPTTVVSVKAERPARGGTDIPEEVAKELAEKILKESAGGSAGG [r6_235_JUSTAS],1.51 ± 0.037
11,SGISNEEIKKILEEIAKEYPGLKIEIKPGTEPSVAKGPKAVVTLTRKPGYLEITITFPETGETTTIPIPPSA [r9_1062_JUSTAS],2.51 ± 0.072
12,SAGGSAIWIPVDEIRDLLKEFGIDVTVERHPNDGWVEIEIKMRRPNGKKHPIKIWVHPDGYIRIEPSAGGSA [r15_1051_TrROS],3.23 ± 0.16
13,SMPEIKVEKKNGKLTITVPKGAKIKIKIEVNGKKIEKEVEVKEGETVTITIELPPNMPKDVKIKEIEIEKSA [r9_1152_TrROS_Hall],1.61 ± 0.066
14,SAGGSAGGSAGEGLKVTVTVSGELDPEKGGLSLRVEIRVEPVLIPPPVLPPAADNLSNLLSAGGSAGGSAGG [r17_454_TrMRF],1.94 ± 0.072
15,SAGGSAGGPLPLEELRRLLESRPDYEILSVEDESPDYVVVTVRFPFPLPSDEERTLRLRLRFPLSAGGSAGG [r6_152_TrMRF],2.23 ± 0.056
16,SAGGSAGGSIRRDENGNFRVRIKVRFPGNGRKRTIEIPFDNATLEEIRKQAIDHGIRPIEIIPSAGGSAGGS [r12_792_TrROS],0.993 ± 0.052
17,SAGGSANFNVKLEIKIIERNPGNPDYVIVRIKVEHRHPNPDGNPMEHRRPIPWIMITDPEEIKEFISAGGSA [r15_1019_TrROS],2.32 ± 0.12
18,SAGPKKKVEIDVHIMIPFKSWEDRELMLYYARKFAPYIARELAKQNGLPPGVDEVKVDVNIMIIPPGQMSAG [r5_436_TrROS],2.84 ± 0.12
19,SAGGSAGGSMETITLPEDVKVEVVEVEPGSVIEVEFEDGLVARVRIDPENLEKVEIEVFPKEESAGGSAGGS [r12_648_TrROS_Hall],-0.0965 ± 0.16
20,SAGGSAGGSMEVTVTPLPDGSLLVTVTVTTSSTPVPVELRFPPSASLEEIRAAAEARAAEVAASAGGSAGGS [r12_69_JUSTAS],0.883 ± 0.029
21,SAGGSASMPLTLTFTTPTRTFTVTIPPSKVSSVTVEEKGPTITVTVEAPDSTITINITPSSVTISASAGGSA [r15_598_JUSTAS],2.98 ± 0.13
